This series can be described thus: protein stability index of a GFP-peptide fusion (GPS, HEK-293T) (PSI 1-6); higher = more stable.
Setting [1] is: treatment: DMSO, c terminus: a fixed tail appended.
The mark [2] stands for this setting: treatment: MLN4924 1 uM, 8 h, c terminus: a fixed tail appended.

± gives the standard deviation.
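Also: 24-mer peptide tiles fused after GFP, lentivirally expressed, FACS-sorted into six equal bins by GFP/DsRed ratio, decoded by Illumina sequencing, PSI is the read-weighted mean bin number.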

For SLNELMIVIGILSAYISNYAFANV [SLC2A12], the protein stability index was determined as 3.35 ± 0.31 under setting [1] and 3.18 ± 0.39 under setting [2].

For SLRENDFIEIELDRQELTYQELLR [ANKRD40], the protein stability index amounted to 3.37 ± 0.62 under setting [1] and 3.57 ± 0.39 under setting [2].

Sequence SMALTCTFNRWGTLLAVGCNDGRI [RBBP5] displayed a protein stability index under setting [1] of 2.48 ± 0.33 and a protein stability index under setting [2] of 2.35 ± 0.34.

With SNLSVENVADTLVLADLHSAEQLK [SPOPL], the protein stability index was found to be 4.65 ± 0.27 under setting [1] and 4.61 ± 0.19 under setting [2].

Regarding SNYYVAHPPVTYSQPYPTWLPCN [TENT5C], the protein stability index worked out at 3.25 ± 0.19 (treatment: DMSO, c terminus: native) and 3.44 ± 0.68 (treatment: MLN4924 1 uM, 8 h, c terminus: native).

As to SPDGALLATASYDTRVYIWDPHNG [WSB1], the protein stability index was 2.5 ± 0.41 under setting [1] and 2.51 ± 0.6 under setting [2].

For SPKYKQDVEGAESQLDEDEHGLHT [TRAF3IP2], the protein stability index by setting is: under setting [1], 5.45 ± 0.14; under setting [2], 5.5 ± 0.27.

As for SPRDLQFSEIRETSAKVNWMPPPS [TNXB], the protein stability index was 3.73 ± 0.23 under setting [1] and 3.69 ± 0.29 under setting [2].

Take SPSVPCIFCEEHFPVAEQDKLLKH [ZNF277]: the protein stability index runs as follows: under setting [1], 4.16 ± 0.24; under setting [2], 4.37 ± 0.084.

For the sequence SQCQMETKPLAIHPCGDKNCPAHW [ADAMTSL2], the protein stability index is 3.91 ± 0.62 under setting [1] and 4.53 ± 0.31 under setting [2].

In the case of SQEAADTPDTRHPCSLGSSLVADY [YJU2B], the protein stability index was 4.34 ± 0.35 under setting [1] and 4.59 ± 0.21 under setting [2].

For SQHCKPEEGLEARGEALGLVGAQA [MAGEA3], the protein stability index runs as follows: under setting [1], 4.73 ± 0.2; under setting [2], 4.73 ± 0.22.

Regarding SQRQAKELKLEQQEAAERESKLLR [LRRC45], the protein stability index is, setting by setting: under setting [1], 5.17 ± 0.28; under setting [2], 5.22 ± 0.1.

As for SRELSLRPSRSGAQQLEEEGPMEE [EID1], the protein stability index by setting is: under setting [1], 5.58 ± 0.29; under setting [2], 5.64 ± 0.12.

Consider SRETECSRVGKQSFIITLGCNSVL [CARM1], for which the protein stability index is, setting by setting: under setting [1], 2.3 ± 0.66; under setting [2], 2.09 ± 0.38.

For the sequence SREYKLVMLGAGGVGKSAMTMQFI [RIT1], the protein stability index under setting [1] worked out at 2.51 ± 0.46 and the protein stability index under setting [2] amounted to 2.27 ± 0.42.

Consider SRGYRNHRSSRETRDYAPPSRGHA [RBMY1A1], for which the protein stability index was found to be 4.63 ± 0.3 under setting [1] and 4.63 ± 0.4 under setting [2].

Turning to SRILNEMRDQYEQMAEKNRRDAET [KRT16], the protein stability index is, setting by setting: under setting [1], 4.65 ± 0.27; under setting [2], 4.78 ± 0.27.

SRKVTTNKLLLSIIILLELAILGG [VTI1B]: the protein stability index reads like this: under setting [1], 2.98 ± 0.7; under setting [2], 2.84 ± 0.65.

Turning to SRSRSRSRSNSRSRSYSPRRSRGS [SRSF1], the protein stability index under setting [1] came to 5.37 ± 0.24 and the protein stability index under setting [2] was 5.6 ± 0.2.

SSALACTLPTLPAKVYVGVKQEIA [NCF4]: the protein stability index came to 3.2 ± 0.2 under setting [1] and 3.1 ± 0.35 under setting [2].

With SSCVKYLIFLSNFPFSLLGLLALA [TSPAN10], the protein stability index under setting [1] was determined as 2.94 ± 0.35 and the protein stability index under setting [2] turned out to be 2.93 ± 0.35.

As for SSFPPSPGPSPDVQLATLAQRVKE [AUP1], the protein stability index runs as follows: under setting [1], 5.1 ± 0.26; under setting [2], 5.05 ± 0.15.

As to SSSDSDFDDEEPRKFYVHIKPAPA [FCHO1], the protein stability index was 4.5 ± 0.27 under setting [1] and 4.45 ± 0.084 under setting [2].

SSSRPISPGLSYASHTVGFTPPTS [CCDC6]: the protein stability index reads like this: under setting [1], 3.54 ± 0.22; under setting [2], 3.74 ± 0.15.

As to SSSSSFGSGFGGGYGGGLGAGFGG [KRT16], the protein stability index under setting [1] stood at 2.65 ± 0.46 and the protein stability index under setting [2] was determined as 2.89 ± 0.3.

For the sequence SSVICNDITAYLFGFFFGRTPLIK [CDS1], the protein stability index runs as follows: under setting [1], 2.13 ± 1.2; under setting [2], 2.02 ± 0.082.

As to STCDTLGMADVGTVCDPARSCAIV [ADAMTS4], the protein stability index reads like this: under setting [1], 3.92 ± 0.34; under setting [2], 3.69 ± 0.083.

For STNEITYGLPIMVTLMVAKWTGDF [CLCN6], the protein stability index was determined as 3.16 ± 0.38 under setting [1] and 3.03 ± 0.45 under setting [2].

In the case of STRGAARPAQAIGTQPRATKHKCR [SPACA9], the protein stability index was determined as 5.13 ± 0.098 under setting [1] and 5.14 ± 0.36 under setting [2].

As to STRLTRIHLREDLVQDQDLEAIRK [ZER1], the protein stability index reads like this: under setting [1], 4.67 ± 0.079; under setting [2], 4.7 ± 0.14.

Turning to SVHFDGETIEGAPPLWAASAAGHL [FEM1A], the protein stability index was 3.42 ± 0.07 under setting [1] and 3.47 ± 0.5 under setting [2].

As for SWCLKRYDLEYWAFHDGQRSRLRP [TRIM14], the protein stability index stood at 2.18 ± 0.25 under setting [1] and 2.33 ± 0.13 under setting [2].

SWSIQMRQHHHQSSFPGSLPQETN returned a protein stability index under setting [1] of 3.51 ± 0.1 and a protein stability index under setting [2] of 3.53 ± 0.11.

Take SYPRTPHTPGTPKSAILVPSEKKV [MAP2]: the protein stability index is, setting by setting: under setting [1], 4.6 ± 0.053; under setting [2], 4.74 ± 0.26.

The sequence SYSPASASSGGAGAAVGTGSSYPT [JUNB] showed a protein stability index under setting [1] of 4.41 ± 0.27 and a protein stability index under setting [2] of 4.61 ± 0.094.

As to SYVCRCKQGYILNSDQTTCRIQDL [MATN2], the protein stability index was 2.4 ± 0.31 under setting [1] and 2.46 ± 0.42 under setting [2].

As to TAAGGQGGPGGPGSDKQQQQQHIE [NR2F2], the protein stability index amounted to 5.34 ± 0.27 under setting [1] and 5.47 ± 0.19 under setting [2].

Consider TDDPTAGRSNAPITAPTEVEVMDE [CSNK1G3], for which the protein stability index worked out at 5.67 ± 0.13 under setting [1] and 5.51 ± 0.22 under setting [2].

For TDGERVAEVAPEERENVAVAKLQE [SDE2], the protein stability index is, setting by setting: under setting [1], 5.59 ± 0.34; under setting [2], 5.49 ± 0.38.

Turning to TEDCPTGSALTFREEQCAAYNHRT [ADAMTS4], the protein stability index reads like this: under setting [1], 5.09 ± 0.22; under setting [2], 5.03 ± 0.12.

For TEHEKKQKLETDAMFRLEHGEADR [YJU2B], the protein stability index stood at 5.32 ± 0.12 under setting [1] and 5.46 ± 0.3 under setting [2].

In the case of TELRLLGRTHSACDALRTLAEARR [RSAD1], the protein stability index was 3.46 ± 0.21 under setting [1] and 3.59 ± 0.18 under setting [2].

In the case of TEQLWRIFAGVHDEKAKPRDRQQA [TLE6], the protein stability index reads like this: under setting [1], 3.45 ± 0.26; under setting [2], 3.76 ± 0.23.

Consider TFDGSLFAVFPSLNEEQTLQEVPT [ETS2], for which the protein stability index is, setting by setting: under setting [1], 3.69 ± 0.28; under setting [2], 3.57 ± 0.18.

As to TFFRLLLPEAPPKKFLTLGSKFRY [EPB41L3], the protein stability index is 2.23 ± 0.32 under setting [1] and 2.85 ± 1.4 under setting [2].

Sequence TFPFKILGDSGLGPWQLNVFVCRV [P2RY14] gave a protein stability index under setting [1] of 3.47 ± 0.73 and a protein stability index under setting [2] of 3.26 ± 1.5.

As for TFSGDVQLAQDDIDGIQAIYGRSQ [MMP1], the protein stability index reads like this: under setting [1], 4.27 ± 0.21; under setting [2], 4.55 ± 0.14.

On to TFSLKTVLMIAIQLISRMEYVHSK [CSNK1G3], for which the protein stability index is, setting by setting: under setting [1], 3.5 ± 0.67; under setting [2], 3.16 ± 0.46.

With TGEVRTARALLEDDSDTQQVVVLV [PCDHGC5], the protein stability index under setting [1] is 2.5 ± 0.39 and the protein stability index under setting [2] came out at 2.82 ± 0.27.

As for TGFTVNVAWNGPRMGDADYLAAWH [HDAC6], the protein stability index by setting is: under setting [1], 2.43 ± 0.52; under setting [2], 2.18 ± 0.26.

Regarding TGIEESTDGMILGPEDLSYQIYDV [LARP4], the protein stability index is, setting by setting: under setting [1], 3.76 ± 0.28; under setting [2], 3.6 ± 0.29.

Consider TGILIFAIGVGQVDFNTLKSIGSE [MATN2], for which the protein stability index turned out to be 3.69 ± 0.069 under setting [1] and 3 ± 0.56 under setting [2].

For TGLVGLFVDFFVRLFTQLKFGVVQ [CLCN6], the protein stability index reads like this: under setting [1], 2.36 ± 0.36; under setting [2], 2.54 ± 0.22.

In the case of THLLMGLAGGKLILSLEGGYNLRA [HDAC6], the protein stability index is 3.08 ± 0.91 under setting [1] and 2.91 ± 1 under setting [2].

Take TIIASNAEEAEILHSACGLSKDHQ [TOR1AIP2]: the protein stability index was 4.48 ± 0.14 under setting [1] and 4.54 ± 0.24 under setting [2].

For TIILQQLLPLRTKVAKLLGYSTHA [NLN], the protein stability index is, setting by setting: under setting [1], 2.33 ± 0.26; under setting [2], 1.92 ± 0.39.

Turning to TIKVSYARPSSASIRDANLYVSGL [ELAVL3], the protein stability index is, setting by setting: under setting [1], 2.37 ± 0.076; under setting [2], 2.23 ± 0.3.

In the case of TINIKCHVHDPHGQVIWGMSWAKL [FBXO39], the protein stability index worked out at 2.84 ± 0.5 under setting [1] and 2.67 ± 0.46 under setting [2].

In the case of TKFDRDGNRILDEKEQEKMRQDLE [PKD2L1], the protein stability index was 5.12 ± 0.34 under setting [1] and 5.36 ± 0.35 under setting [2].

For TKQNFFSQTPILQALQHVQASCDE [INTS3], the protein stability index was determined as 3.95 ± 0.12 under setting [1] and 4.16 ± 0.23 under setting [2].

TLGELKQNLSRSWHDVQVSSAYVK [TPD52L2] gave a protein stability index under setting [1] of 2.96 ± 0.23 and a protein stability index under setting [2] of 3.26 ± 0.27.

With TLGKVLKVIVVMRSLFIDRTIVKG [MED27], the protein stability index is, setting by setting: under setting [1], 3.01 ± 0.66; under setting [2], 2.74 ± 0.97.

On to TLHAVEKLQVRLATKTEPKKLEKY [ELOA2], for which the protein stability index worked out at 3.7 ± 0.31 under setting [1] and 3.73 ± 0.41 under setting [2].

Turning to TLKRGYFQKSLVLISKLPYIHFFH [DENND6A], the protein stability index reads like this: under setting [1], 3.11 ± 0.73; under setting [2], 2.7 ± 0.3.

In the case of TLNIKETDSKELSMAKEVIAKELS [ZBED1], the protein stability index reads like this: under setting [1], 3.87 ± 0.086; under setting [2], 4.13 ± 0.12.

As for TLTSVQLLDCFGIPVLMALSWFIL [SLC35F2], the protein stability index reads like this: under setting [1], 3.03 ± 0.35; under setting [2], 2.65 ± 0.58.

For the sequence TNRVKECLAKGTFSDVTFILDDGT [RHOBTB2], the protein stability index worked out at 3.52 ± 0.16 under setting [1] and 3.63 ± 0.18 under setting [2].

With TNTTSTQMTNIGVYVSNMTDKLVT [IQUB], the protein stability index under setting [1] is 2.78 ± 0.3 and the protein stability index under setting [2] turned out to be 2.8 ± 0.34.

Take TPIEVLCENFPEMATYLRYVRRLD [CSNK1G3]: the protein stability index is 2.39 ± 0.3 under setting [1] and 2.6 ± 0.44 under setting [2].

Consider TPLHVAAANKAVKCAEVIIPLLSS [ANKRD44], for which the protein stability index is, setting by setting: under setting [1], 2.44 ± 0.26; under setting [2], 2.54 ± 0.22.

Consider TSAEIELPDVEPAAFLALLRFLYS [BTBD1], for which the protein stability index runs as follows: under setting [1], 2.42 ± 0.25; under setting [2], 2.34 ± 0.2.

For the origin of these results see the supplement of paper PMC10567573.
